# Measured values as given in the supplement of paper PMC10126150.
# ± gives the standard deviation of the averaged measurements.
# Test system: ATP
# Assay: switch fluorescence ratio, 500 uM ATP over buffer (Cy3 cluster intensity, sum of 5 cycles each) (fold (ratio)); higher = stronger signal-on switching upon ATP binding; sequences stand for … in TCGTCGGCAGCGTCAGATGTGTATAAGAGACAGTTTTTTTTTTTTTTTTTTTTTTTTT…TC
# Conditions: aptamer strand: ATP DNA aptamer (quencher-CACCTGGGGGAGTATTGCGGAGGAAGG + anchor), 100 nM annealed; ATP concentration: 500 uM
# Procedure, shortened: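 Per cluster, summed Cy3 intensity from the target cycles was divided by that from the buffer cycles to give the fluorescence ratio, then averaged per switch-domain sequence. Clusters outside 100-1000 RFU were excluded. The Cy3-labelled switching-strand clusters, on a modified Illumina MiSeq flow-cell, were annealed to 100 nM quencher-labelled ATP aptamer and imaged in selection buffer, then after 15 min with 500 uM ATP at 22 °C, for five cycles with NaOH stripping and re-annealing between them.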
# 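Further: ATP exposure 15 min at 22 °C before imaging.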
row,Sequence,switch fluorescence ratio
1,CGTTCCGGGG,1.03 ± 0.036
2,CGTTCCGGTC,1.06 ± 0.054
3,CGTTCGTGTG,1.017 ± 0.0044
4,CGTTCTATTG,1.02 ± 0.086
5,CGTTGAGGGT,0.99 ± 0.014
6,CGTTGATTAG,0.984 ± 0.014
7,CGTTGCATGC,1.39 ± 0.099
8,CGTTGCCGCT,0.934 ± 0.054
9,CGTTGCGCGT,0.993 ± 0.037
10,CGTTGCGGTA,1.04 ± 0.026
11,CGTTGCTTTT,1.01 ± 0.026
12,CGTTGGCGAG,1.01 ± 0.031
13,CGTTGGGCTG,1.02 ± 0.038
14,CGTTGGGGGG,0.999 ± 0.03
15,CGTTGGTACG,1 ± 0.022
16,CGTTGTAAGG,1.01 ± 0.027
17,CGTTGTCGTT,1.01 ± 0.055
18,CGTTGTTCGC,1.02 ± 0.028
19,CGTTTAAAAG,0.975 ± 0.022
20,CGTTTAGACG,1.09 ± 0.095
21,CGTTTATCTG,0.972 ± 0.025
22,CGTTTCAGGT,0.994 ± 0.036
23,CGTTTCATCT,0.987 ± 0.065
24,CGTTTCCTTT,0.993 ± 0.024
25,CGTTTCTGGG,1.007 ± 0.0015

row,Sequence,switch fluorescence ratio
1,CGTTTGAAAA,1.019 ± 0.0058
2,CGTTTGAATA,0.974 ± 0.052
3,CGTTTGATGC,1.018 ± 0.0033
4,CGTTTGCCGT,0.985 ± 0.024
5,CGTTTGGAGG,1.03 ± 0.016
6,CGTTTGGCCC,0.988 ± 0.044
7,CGTTTGGGCT,1.023 ± 0.0037
8,CGTTTGTCCT,0.9907 ± 0.0036
9,CGTTTTATCA,0.9914 ± 0.0074
10,CGTTTTGGGT,1.01 ± 0.033
11,CGTTTTGGTG,0.9914 ± 0.0052
12,CGTTTTTACT,0.99 ± 0.052
13,CGTTTTTATG,1.03 ± 0.04
14,CGTTTTTCTT,0.958 ± 0.05
15,CGTTTTTGAT,0.981 ± 0.04
16,CGTTTTTGTA,0.99 ± 0.015
17,CTAAAAAATT,1.01 ± 0.022
18,CTAAAAACTA,0.978 ± 0.013
19,CTAAAAGGCG,1.06 ± 0.04
20,CTAAACAGGG,1.03 ± 0.011
21,CTAAAGAAAG,0.989 ± 0.013
22,CTAAAGAGCA,1.03 ± 0.073
23,CTAAATGTTT,1 ± 0.05
24,CTAAATTTAG,0.995 ± 0.023
25,CTAACAATAA,1.05 ± 0.081

row,Sequence,switch fluorescence ratio
1,CTAACTGGCA,1.048 ± 0.009
2,CTAACTGTTA,0.99 ± 0.015
3,CTAAGAAGGG,1.05 ± 0.061
4,CTAAGAGCGC,1.08 ± 0.064
5,CTAAGAGGGC,1.0235 ± 0.00018
6,CTAAGCGGCG,0.999 ± 0.026
7,CTAAGGGGGG,1.04 ± 0.033
8,CTAAGGGGTT,0.991 ± 0.036
9,CTAAGTAGCC,1.01 ± 0.015
10,CTAAGTTTGG,1.018 ± 0.0037
11,CTAATAGTTA,0.972 ± 0.0099
12,CTAATCCACT,1.028 ± 0.004
13,CTAATCGGTC,0.874 ± 0.029
14,CTAATGAGTT,0.999 ± 0.03
15,CTAATGATGG,1.01 ± 0.056
16,CTAATGTGTC,1.02 ± 0.088
17,CTAATTGAAC,1.009 ± 0.0032
18,CTAATTTACG,1.06 ± 0.028
19,CTAATTTGGT,1.01 ± 0.016
20,CTACGAGGTA,1.045 ± 0.0027
21,CTACGCCTGG,1.66 ± 0.044
22,CTACGGAGGG,1.06 ± 0.023
23,CTACGTAATG,3.16 ± 0.27
24,CTACTACTGA,1.08 ± 0.015
25,CTAGAAAGTT,0.9778 ± 0.0029

row,Sequence,switch fluorescence ratio
1,CTAGATATGT,0.99 ± 0.011
2,CTAGATTCGC,0.984 ± 0.025
3,CTAGATTGGG,1.015 ± 0.0043
4,CTAGCATGAT,1.03 ± 0.061
5,CTAGCCATTG,0.995 ± 0.022
6,CTAGGCTAAT,1.014 ± 0.01
7,CTAGGGCGCC,0.975 ± 0.012
8,CTAGGGGGCG,0.992 ± 0.058
9,CTAGGGGGGG,0.988 ± 0.021
10,CTAGGGGTAC,1.16 ± 0.17
11,CTAGGTATAG,1.006 ± 0.0072
12,CTAGGTCGGA,1.01 ± 0.021
13,CTAGGTGACG,1.004 ± 0.0075
14,CTAGGTGTGT,1.02 ± 0.051
15,CTAGGTTAAA,0.988 ± 0.023
16,CTAGGTTGCA,0.9871 ± 0.0052
17,CTAGGTTTGG,1.02 ± 0.033
18,CTAGTCAATC,1.7 ± 0.072
19,CTAGTGAGTG,0.984 ± 0.036
20,CTAGTTAAGG,1.011 ± 0.0048
21,CTAGTTAGGG,0.964 ± 0.02
22,CTAGTTTTTA,1.009 ± 0.007
23,CTATACTTGA,0.999 ± 0.031
24,CTATCAACCG,1.04 ± 0.022
25,CTATCCATGG,0.993 ± 0.017

row,Sequence,switch fluorescence ratio
1,CTATCTCTTG,1 ± 0.017
2,CTATGACGTT,0.998 ± 0.019
3,CTATGATATT,0.947 ± 0.042
4,CTATGATTCG,1.01 ± 0.023
5,CTATGATTTA,0.975 ± 0.027
6,CTATGGGCCG,0.972 ± 0.028
7,CTATGTAGTC,1.01 ± 0.019
8,CTATGTGGAG,0.975 ± 0.033
9,CTATGTGTGG,0.976 ± 0.021
10,CTATTAGGGC,1.04 ± 0.0026
11,CTATTGGGAT,0.98078 ± 0.00046
12,CTATTGGTTA,1.01 ± 0.011
13,CTCAAAGTCT,1.02 ± 0.012
14,CTCAACACCT,1.35 ± 0.048
15,CTCAATAGGG,1.01 ± 0.038
16,CTCAATTATG,0.972 ± 0.043
17,CTCACATTGA,1.05 ± 0.025
18,CTCAGGTATC,1.11 ± 0.012
19,CTCAGTATTT,1.01 ± 0.018
20,CTCAGTGGTA,1.014 ± 0.0043
21,CTCATAGCGG,1.02 ± 0.029
22,CTCATAGTAG,0.988 ± 0.016
23,CTCATCGGGC,1.06 ± 0.032
24,CTCATGAAAC,1.01 ± 0.046
25,CTCATGACGG,1.044 ± 0.0061

row,Sequence,switch fluorescence ratio
1,CTCATGGGGA,1.04 ± 0.075
2,CTCATTTGGT,0.989 ± 0.028
3,CTCCAGGGGA,1.5 ± 0.49
4,CTCCGAGATG,5.85 ± 0.59
5,CTCCGGGGGA,1.33 ± 0.31
6,CTCCGTTTTT,2.88 ± 0.62
7,CTCCTGTGTT,1.06 ± 0.0073
8,CTCCTGTTTT,1.02 ± 0.023
9,CTCGACAGGG,0.991 ± 0.019
10,CTCGGAGAGG,0.987 ± 0.033
11,CTCGGAGATT,1.01 ± 0.018
12,CTCGGAGGGA,0.985 ± 0.04
13,CTCGGCGTCC,1.142 ± 0.0086
14,CTCGGCTTGA,1.06 ± 0.018
15,CTCGGGATCA,1.011 ± 0.0028
16,CTCGGGGGGC,0.992 ± 0.063
17,CTCGGGGTCG,0.994 ± 0.047
18,CTCGGGGTTT,0.998 ± 0.038
19,CTCGGTATGC,1.257 ± 0.0034
20,CTCGGTTAGG,0.9819 ± 0.0095
21,CTCGTAGGGG,1.01 ± 0.039
22,CTCGTTGAGG,0.979 ± 0.032
23,CTCGTTGCGG,1.06 ± 0.07
24,CTCGTTTGAT,1 ± 0.026
25,CTCTAAGGGT,1.005 ± 0.0098

row,Sequence,switch fluorescence ratio
1,CTCTAAGTCG,0.976 ± 0.011
2,CTCTGAGCGG,1.03 ± 0.048
3,CTCTGAGGGA,1.01 ± 0.027
4,CTCTGGGCAT,2.2 ± 1.9
5,CTCTGTAGGC,1.87 ± 0.31
6,CTCTGTCACG,1.11 ± 0.074
7,CTCTTAGGGG,1.12 ± 0.16
8,CTCTTGAGCC,1.01 ± 0.044
9,CTCTTTGGAC,1.53 ± 0.89
10,CTCTTTTGGG,0.9652 ± 0.0019
11,CTGAAAGATA,0.977 ± 0.055
12,CTGAAATCTG,0.9971 ± 0.0094
13,CTGAACTCGA,1.09 ± 0.046
14,CTGAAGCTGT,2.64 ± 1.3
15,CTGAAGGGAT,1.05 ± 0.023
16,CTGAAGGTTG,0.9737 ± 0.0014
17,CTGAATATGA,1 ± 0.065
18,CTGAATGC,1.17 ± 0.035
19,CTGAATGCAG,1.069 ± 0.0077
20,CTGAATGTAG,1 ± 0.011
21,CTGAATTAAG,0.99 ± 0.016
22,CTGAATTGGT,0.975 ± 0.012
23,CTGAATTTCA,0.9833 ± 0.0017
24,CTGACATGAT,1.07 ± 0.04
25,CTGACCGGAG,1.24 ± 0.036

row,Sequence,switch fluorescence ratio
1,CTGACTCCTT,1.517 ± 0.015
2,CTGAGATTTT,0.931 ± 0.018
3,CTGAGCTTTC,1.29 ± 0.15
4,CTGAGGTAAT,1.94 ± 0.21
5,CTGATCATTC,1.04 ± 0.045
6,CTGATGGCGT,1 ± 0.0068
7,CTGATGGGTG,1.01 ± 0.013
8,CTGATGGTAG,1.01 ± 0.015
9,CTGATGTACG,1.06 ± 0.12
10,CTGATGTGTA,0.965 ± 0.059
11,CTGATGTTGT,1.0036 ± 0.00066
12,CTGATTGTAC,1.08 ± 0.069
13,CTGATTGTGT,0.9718 ± 0.0034
14,CTGATTTGTA,1 ± 0.053
15,CTGCAAGACA,2.64 ± 0.72
16,CTGCAGATCG,1.02 ± 0.06
17,CTGCAGGGGA,1.05 ± 0.048
18,CTGCATGGGG,1.062 ± 0.0025
19,CTGCGTCCAT,1.068 ± 0.01
20,CTGCGTCGGA,1.01 ± 0.032
21,CTGCGTCTTT,1.03 ± 0.015
22,CTGCTAATAT,1.73 ± 0.14
23,CTGCTAGGTA,0.9975 ± 0.0027
24,CTGCTCGGTG,0.987 ± 0.062
25,CTGCTTAAGG,1.04 ± 0.065
